Laboratory results as given in publication PMC5494197, “Deregulation of mitochondrial F1FO-ATP synthase via OSCP in Alzheimer’s disease” (Nature Communications, 2016).

Biological target: T1, Aβ1–42 peptide (UniProt P05067 672-713)
T1 construct: amyloid beta 1-42, cut product of the amyloid beta precursor protein (APP); For neurons and isolated mitochondria the peptide was prepared as oligomeric Aβ (HFIP film, DMSO, HAM'S F-12, 4 °C for 24 h); for the pull-down the methods say only 'Aβ peptide'; also called amyloid beta; oligomeric Aβ1–42; source: synthetic peptide, bought: GenicBio
Assay: pull-down; GST-tagged OSCP on glutathione agarose as bait, incubated overnight at 4 °C with Aβ peptide; immunoblotting or coomassie staining
Details: both partners purified

binding result: binds
B1: GST-tagged OSCP (oligomycin sensitivity conferring protein), wild type (natural protein, human, UniProt P48047 24-213, looked up)
chain: FAKLVRPPVQVYGIEGRYATALYSAASKQNKLEQVEKELLRVAQILKEPKVAASVLNPYVKRSIKVKSLNDITAKERFSPLTTNLINLLAENGRLSNTQGVVSAFSTMMSVHRGEVPCTVTSASPLEEATLSELKTVLKSFLSQGQVLKLEAKTDPSILGGMIVRIGEKYVDMSVKTKIQKLGRAMREIV
notes: oligomycin sensitivity conferring protein (OSCP) subunit of mitochondrial F1FO-ATP synthase, human cDNA (Gene Name ATP5O, NCBI Gene ID 539) in pGEX-4t-1; it may tell the limits of the construct; also called GST-OSCP; wild-type OSCP
